Experimental data as given in PMC8519809 (Cell Reports, 2021).

Molecular target: SARS-CoV-1 S-2P protein (SARS-CoV-1 (human SARS coronavirus); …, stabilised)
Experiment: SPR

B1: Fab22 (Fab, V domains shown)
VH: EVQLQQPGPVLVKPGASVRMSCKASGYRITDNFMNWVKQSHGKSLEWIGIINPYNGGTKYNQKFKGKATLTVDTSSSTAYMELNSLTSEDSAVYYCTRVRGNDYHGRAMDYWGQGTSVTVSS
VL: DVVLTQTPLSLPVNIGDQASISCKSTKSLLNRDGFTFLDWYLQKPGQSPQLLIYLVSNRFSGVPDRFSGSGSGTDFTLKISRVEAEDLGVYYCFQSNYLFTFGSGTKLEIK
B1 was tested. Which Kd did it give?
The Kd was 7.2 nM.
